Test results from patent US10907134B2, “Mutated genes for the catalytic protein of oplophorus luciferase and use thereof” (JNC CORPORATION, priority 2013, dated 2021).

Assays:
CHO-K1 cells [1] = experiment: Luminescence activity of KAZ mutants expressed in animal culture cells with signal peptide of Gaussia luciferase for secretion; format: cell-based, Chinese hamster; conditions: pcDNA3-GLsp- vectors; for Relative Luminescence Activity (Imax) (%) Cell Extracts / Relative Luminescence Activity (Imax) (%) Culture Medium: Table 5, CHO-K1, 48 hours, 0.5 μg coelenterazine; for Relative Luminescence Activity (Imax) (%) Cell Extracts: 5 μL cell extracts; for Relative Luminescence Activity (Imax) (%) Culture Medium: 5 μL culture medium; for Relative Luminescence Activity (%, Imax) Cell Extracts / Relative Luminescence Activity (%, Imax) Culture Medium: Table 11, CHO-K1, coelenterazine
In short: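 CHO-K1 cells were transfected with the KAZ mutant plasmid plus an internal standard vector. After 48 h, culture medium and sonicated cell extracts were collected. 5 μL of each was added to 0.5 μg coelenterazine in 30 mM Tris-HCl pH 7.6, 10 mM EDTA, and luminescence was read for 60 s, with maximum intensity (Imax) expressed as a percentage.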

CHO-K1 cells [2] = experiment: Luminescence activity of KAZ mutants expressed in animal culture cells without secretional signal peptide sequence; format: cell-based, Chinese hamster; conditions: for Relative Luminescence Activity (Imax) Cell Extracts / Relative Luminescence Activity (Imax) Culture Medium: Table 12, pcDNA3- vectors without secretion signal; for Relative Luminescence Activity (Imax) Cell Extracts / Relative Luminescence Activity (Imax) Culture Medium / Luminescence activity in the cell extracts, fold higher than wild KAZ: CHO-K1, coelenterazine; for Luminescence activity in the cell extracts, fold higher than wild KAZ: vectors without a secretion signal; for Luminescence activity compared with wild KAZ when coelenterazine was used as a substrate: summary of results
Method: Chinese hamster ovary cell line CHO-K1 was cultured in Ham's F-12 medium (manufactured by Wako Pure Chemical Industries, Ltd.) supplemented with 10% (v/v) fetal bovine serum (manufactured by Biowest Inc.). The CHO-K1 cells were plated in a 6-well plate in 1×10^5 cells/well/2 mL medium (n=2) and cultured in an incubator at 37° C. in 5% (v/v) CO2. After 24 hours, the purified recombinant plasmid was transfected to CHO-K1 cells using a FuGene HD transfection kit (manufactured by Promega Corp.), which was provided for subsequent experiment. Specifically, 1 μg of the recombinant plasmid pGL4.13 [Luc2/sv40], 0.1 μg of the internal standard vector and 3 μL of FuGene HD were added to 100 μL of the medium, which was allowed to stand at room temperature for 15 minutes. Subsequently, 100 μL of the DNA-FuGene complex was added to the cells in the 6 wells. After incubation for 48 hours, the culture medium was collected. On the other hand, the KAZ mutants expressed in the cells were washed 3 times with 3 mL of 1×PBS, then suspended in 1 mL of 1×PBS and disrupted on ice by ultrasonication, which was used as enzyme solutions of the cell-extracts of KAZ mutants.
A luminescence reaction was started by adding 5 μL of the culture media and cell extracts obtained in EXAMPLE 10 to 100 μL of 30 mM Tris-HCl (pH 7.6)-10 mM EDTA (manufactured by Wako Pure Chemical Industries, Ltd.) containing 0.5 μg of coelenterazine (manufactured by INC Corp.). The luminescence activity was determined using a luminometer (manufactured by Atto Inc.: AB2200) for 60 seconds, and the maximum intensity of luminescence (Imax) was defined as a percentage.
The gene fragments of the KAZ mutants with two amino acid substitutions and three amino acid substitutions and nanoKAZ containing the Kozak sequence were digested with restriction enzymes Asp718 and XbaI, and inserted into the Asp718-XbaI site of pcDNA3 vector (manufactured by Invitrogen Inc.) to construct the vectors of pcDNA3-KAZ-V44I, pcDNA3-KAZ-A54I, pcDNA3-KAZ-Y138I, pcDNA3-KAZ-V44I-A54I, pcDNA3-KAZ-V44I-Y138I, pcDNA3-KAZ-A54I-Y138I and pcDNA3-KAZ-V44I-A54I-Y138I.
The culture media of the KAZ mutants with two amino acid substitutions and KAZ mutants with three amino acid substitutions and the enzyme solutions of cell-extracts of KAZ mutants were obtained in the same manner as EXAMPLE 10.
Luminescence activities of the resulting enzyme solutions and enzyme solutions of the cell-extracts of KAZ mutants were determined in the same manner as EXAMPLE 11.

[3] = Substrate specificities of KAZ mutants (ZZ-fused, crude enzyme), 6h-CTZ; format: biochemical; conditions: 1 μg substrate; for Relative Luminescence Activity 6h-CTZ Int.: integrated for 60 seconds; for Relative Luminescence Activity 6h-CTZ Imax: maximum intensity of luminescence
Method: (§1) The coelenterazine analogues used for substrate specificity studies were synthesized by the methods described in publications. Specifically, bis-coelenterazine was synthesized by the method described in Nakamura et al. (1997) Tetrahedron Lett. 38: 6405-6406; furimazine by the method described in Hall et al. (2012) ACS Chem. Biol. […]; and, 6h-coelenterazine, f-coelenterazine and 6h-f-coelenterazine by the methods described in Inouye et al (2013) Biochem. Biophys. Res. Commun. 437: 23-28.
(§2) DTT was added to the crude enzyme solutions obtained in EXAMPLE 17 at a final concentration of 1 mM and the mixtures were allowed to stand in an ice water for more than 5 hours in the same manner as Example 8. A luminescence reaction was started by the addition of 1 μL each of the crude enzyme solutions to 100 μL of TE containing 1 μg of coelenterazine (manufactured by JNC Corp.) or its analogues. The luminescence activities were determined using a luminometer (manufactured by Atto Inc.: AB2200) for 60 seconds, and the maximum intensity of luminescence (Imax) was shown as relative luminescence activity.

[4] = Substrate specificities of KAZ mutants (ZZ-fused, crude enzyme), f-CTZ; format: biochemical; conditions: 1 μg substrate; for Relative Luminescence Activity f-CTZ Int.: integrated for 60 seconds; for Relative Luminescence Activity f-CTZ Imax: maximum intensity of luminescence
Method: as §1, §2

[5] = Substrate specificities of KAZ mutants (ZZ-fused, crude enzyme), bis-CTZ; format: biochemical; conditions: 1 μg substrate; for Relative Luminescence Activity bis-CTZ Int.: integrated for 60 seconds; for Relative Luminescence Activity bis-CTZ Imax: maximum intensity of luminescence
Method: as §1, §2

| Molecule | Relative Luminescence Activity (Imax) (%) Cell Extracts (CHO-K1 cells [1]) [%] | Relative Luminescence Activity (Imax) (%) Culture Medium (CHO-K1 cells [1]) | Relative Luminescence Activity (Imax) Cell Extracts (CHO-K1 cells [2]) | Relative Luminescence Activity (Imax) Culture Medium (CHO-K1 cells [2]) | Luminescence activity in the cell extracts, fold higher than wild KAZ (CHO-K1 cells [2]) [fold] | Relative Luminescence Activity 6h-CTZ Int. [3] | Relative Luminescence Activity 6h-CTZ Imax [3] | Relative Luminescence Activity f-CTZ Int. [4] | Relative Luminescence Activity f-CTZ Imax [4] | Relative Luminescence Activity bis-CTZ Int. [5] | Relative Luminescence Activity bis-CTZ Imax [5] | Relative Luminescence Activity (%, Imax) Cell Extracts (CHO-K1 cells [1]) [%] | Relative Luminescence Activity (%, Imax) Culture Medium (CHO-K1 cells [1]) | Luminescence activity compared with wild KAZ when coelenterazine was used as a substrate (CHO-K1 cells [2]) |
| --- | --- | --- | --- | --- | --- | --- | --- | --- | --- | --- | --- | --- | --- | --- |
| KAZ-A54I: KAZ with single amino acid substitution A54I, SEQ ID NO: 6 (protein) FTLADFVGDWQQTAGYNQDQVLEQGGLSSLFQALGVSVTPIQKVVLSGENGLKIDIHVIIPYEGLSGFQMGLIEMIFKVVYPVDDHHFKIILHYGTLVIDGVTPNMIDYFGRPYPGIAVFDGKQITVTGTLWNGNKIYDERLINPDGSLLFRVTINGVTGWRLCENILA | 2.4 | less than 0.01% | 6.7 | 0.03 | 6.7 | 2.1 | 1.6 | 4.9 | 8.2 | 3.4 | 3.0 | – | – | – |
| KAZ-V44I-Y138I: KAZ mutant with two amino acid substitutions V44I and Y138I, SEQ ID NO: 12 (protein) FTLADFVGDWQQTAGYNQDQVLEQGGLSSLFQALGVSVTPIQKIVLSGENGLKADIHVIIPYEGLSGFQMGLIEMIFKVVYPVDDHHFKIILHYGTLVIDGVTPNMIDYFGRPYPGIAVFDGKQITVTGTLWNGNKIIDERLINPDGSLLFRVTINGVTGWRLCENILA | – | – | 14.7 | 0.04 | 15 | 5.3 | 4.3 | 7.4 | 13.3 | 8.3 | 7.9 | 11.2 | less than 0.01% | markedly higher luminescence activities than wild KAZ |
| KAZ-Y138I: KAZ with single amino acid substitution Y138I, SEQ ID NO: 8 (protein) FTLADFVGDWQQTAGYNQDQVLEQGGLSSLFQALGVSVTPIQKVVLSGENGLKADIHVIIPYEGLSGFQMGLIEMIFKVVYPVDDHHFKIILHYGTLVIDGVTPNMIDYFGRPYPGIAVFDGKQITVTGTLWNGNKIIDERLINPDGSLLFRVTINGVTGWRLCENILA | 1.0 | less than 0.01% | 6.4 | 0.03 | 6.4 | 0.3 | 0.2 | 2.4 | 2.4 | 1.5 | 1.3 | – | – | – |
| KAZ-V44I: KAZ with single amino acid substitution V44I, SEQ ID NO: 4 (protein) FTLADFVGDWQQTAGYNQDQVLEQGGLSSLFQALGVSVTPIQKIVLSGENGLKADIHVIIPYEGLSGFQMGLIEMIFKVVYPVDDHHFKIILHYGTLVIDGVTPNMIDYFGRPYPGIAVFDGKQITVTGTLWNGNKIYDERLINPDGSLLFRVTINGVTGWRLCENILA | 0.7 | less than 0.01% | 3.7 | 0.06 | 3.7 | 0.6 | 0.4 | 2.0 | 2.1 | 1.4 | 1.1 | – | – | – |
| KAZ-V44I-A54I: KAZ mutant with two amino acid substitutions V44I and A54I, SEQ ID NO: 10 (protein) FTLADFVGDWQQTAGYNQDQVLEQGGLSSLFQALGVSVTPIQKIVLSGENGLKIDIHVIIPYEGLSGFQMGLIEMIFKVVYPVDDHHFKIILHYGTLVIDGVTPNMIDYFGRPYPGIAVFDGKQITVTGTLWNGNKIYDERLINPDGSLLFRVTINGVTGWRLCENILA | – | – | 22.5 | 0.05 | 23 | 5.6 | 4.5 | 5.2 | 11.3 | 5.9 | 5.7 | 13.9 | 0.07% | markedly higher luminescence activities than wild KAZ |
